Starred links: 1 amine or outer side, 2 acyl side, 3 side chain; linkers in the order of their positions; H or OH if unused. Non-standard residues stand in square brackets, D forms with d. No end group written: not given here. (R)β21Nal = (R)-β2-1-naphthylalanine, O=C([C@@H](CN[*:1])Cc1cccc2ccccc12)[*:2]; (R)β31Nal = (R)-β3-1-naphthylalanine, O=C(C[C@@H](Cc1cccc2ccccc12)N[*:1])[*:2]; Dmt = Cc1cc(O)cc(C)c1C[C@H](N)C(=O)O
Experiments:
human mu opioid receptor [1] = target: T1, human mu opioid receptor (human, UniProt P35372 1-400); assay: cell-based or functional assay
human mu opioid receptor [2] = target: T1, human mu opioid receptor; assay: radioligand binding; displacement of [3H]DAMGO from commercial membranes of CHO cells transfected with the human recombinant mu opioid receptor; Ki, mean ± SEM, n ≥ 3; settings: one partner purified
[3] = target: T2, human kappa opioid receptor (human, UniProt P41145 1-380); assay: radioligand binding; displacement of [3H]U-69593 from commercial membranes of CHO cells transfected with the human recombinant kappa opioid receptor; Ki, mean ± SEM, n ≥ 3; settings: one partner purified
T2 construct: kappa opioid receptor, human recombinant, in membranes of transfected CHO cells; also called kappa receptor; source: commercial membranes of CHO cells transfected with human recombinant opioid receptors

[4] = target: T3, human delta opioid receptor (human, UniProt P41143 1-372); assay: radioligand binding; displacement of [3H]deltorphin-2 from commercial membranes of CHO cells transfected with the human recombinant delta opioid receptor; Ki, mean ± SEM, n ≥ 3; settings: one partner purified
T3 construct: delta opioid receptor, human recombinant, in membranes of transfected CHO cells; also called delta receptor; source: commercial membranes of CHO cells transfected with human recombinant opioid receptors
T3 sequence (P41143 whole entry, stated change not applied): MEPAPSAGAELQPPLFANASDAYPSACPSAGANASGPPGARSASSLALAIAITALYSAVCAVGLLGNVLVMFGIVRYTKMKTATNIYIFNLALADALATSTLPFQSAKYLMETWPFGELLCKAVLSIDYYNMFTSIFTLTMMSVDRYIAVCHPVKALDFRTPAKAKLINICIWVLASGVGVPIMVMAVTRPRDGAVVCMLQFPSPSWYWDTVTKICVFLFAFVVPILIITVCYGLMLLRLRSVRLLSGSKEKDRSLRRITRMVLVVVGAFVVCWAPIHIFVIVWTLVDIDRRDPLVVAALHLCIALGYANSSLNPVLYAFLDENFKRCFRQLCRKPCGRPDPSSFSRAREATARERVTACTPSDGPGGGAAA

T1 sequence (P35372 whole entry): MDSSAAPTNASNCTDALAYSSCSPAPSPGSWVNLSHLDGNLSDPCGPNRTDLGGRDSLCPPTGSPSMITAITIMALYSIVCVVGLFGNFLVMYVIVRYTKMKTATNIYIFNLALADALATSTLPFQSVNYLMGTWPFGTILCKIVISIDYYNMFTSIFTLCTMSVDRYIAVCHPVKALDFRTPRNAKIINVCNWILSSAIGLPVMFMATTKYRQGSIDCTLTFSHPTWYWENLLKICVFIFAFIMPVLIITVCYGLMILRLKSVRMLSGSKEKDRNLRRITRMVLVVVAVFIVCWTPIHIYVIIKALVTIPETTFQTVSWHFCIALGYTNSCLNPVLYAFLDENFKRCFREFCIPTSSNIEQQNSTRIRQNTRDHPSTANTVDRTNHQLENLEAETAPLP
T2 sequence (P41145 whole entry): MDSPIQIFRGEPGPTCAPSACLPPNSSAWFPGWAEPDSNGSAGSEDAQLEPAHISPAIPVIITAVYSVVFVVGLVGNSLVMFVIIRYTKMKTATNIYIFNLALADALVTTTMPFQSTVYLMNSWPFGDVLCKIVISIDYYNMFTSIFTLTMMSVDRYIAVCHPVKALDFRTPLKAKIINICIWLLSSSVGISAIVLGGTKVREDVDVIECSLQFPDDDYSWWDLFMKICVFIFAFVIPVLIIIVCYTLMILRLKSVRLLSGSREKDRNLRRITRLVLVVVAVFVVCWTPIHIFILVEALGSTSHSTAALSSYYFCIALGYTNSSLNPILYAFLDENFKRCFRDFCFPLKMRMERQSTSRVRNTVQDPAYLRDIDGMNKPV

B1: EM-2 analog 12 (Tyr-Pro-(R)-β3-1-Nal-Phe-NH2) (peptide)
chain: YP[(R)β31Nal]F-NH2
modifications: N-terminus assumed
SMILES: NC(=O)[C@H](Cc1ccccc1)NC(=O)C[C@@H](Cc1cccc2ccccc12)NC(=O)[C@@H]1CCCN1C(=O)[C@@H](N)Cc1ccc(O)cc1
calcium mobilization, CHO cells with human mu receptor and Gαqi5: α (Emax ratio to the standard agonist) (human mu opioid receptor [1]): 0.97 | Ki (human mu opioid receptor [2]): 32.1 nM | Ki [3]: > 1000 nM | Ki [4]: > 1000 nM

B2: EM-2 analog 11 (Dmt-Pro-(R)-β2-1-Nal-Phe-NH2) (peptide)
chain: [Dmt]P[(R)β21Nal]F-NH2
modifications: N-terminus assumed
SMILES: Cc1cc(O)cc(C)c1C[C@H](N)C(=O)N1CCC[C@H]1C(=O)NC[C@@H](Cc1cccc2ccccc12)C(=O)N[C@@H](Cc1ccccc1)C(N)=O
calcium mobilization, CHO cells with human mu receptor and Gαqi5: α (Emax ratio to the standard agonist) (human mu opioid receptor [1]): 0.57 | Ki (human mu opioid receptor [2]): 9.54 nM | Ki [3]: > 1000 nM | Ki [4]: 675 nM

B3: EM-2 analog 13 (Dmt-Pro-(R)-β3-1-Nal-Phe-NH2) (peptide)
chain: [Dmt]P[(R)β31Nal]F-NH2
modifications: N-terminus assumed
SMILES: Cc1cc(O)cc(C)c1C[C@H](N)C(=O)N1CCC[C@H]1C(=O)N[C@@H](CC(=O)N[C@@H](Cc1ccccc1)C(N)=O)Cc1cccc2ccccc12
calcium mobilization, CHO cells with human mu receptor and Gαqi5: α (Emax ratio to the standard agonist) (human mu opioid receptor [1]): 0.77 | Ki (human mu opioid receptor [2]): 2.75 nM | Ki [3]: 915 nM | Ki [4]: 722 nM

B4: EM-2 analog 10 (Tyr-Pro-(R)-β2-1-Nal-Phe-NH2) (peptide)
chain: YP[(R)β21Nal]F-NH2
modifications: N-terminus assumed
SMILES: NC(=O)[C@H](Cc1ccccc1)NC(=O)[C@@H](CNC(=O)[C@@H]1CCCN1C(=O)[C@@H](N)Cc1ccc(O)cc1)Cc1cccc2ccccc12
calcium mobilization, CHO cells with human mu receptor and Gαqi5: α (Emax ratio to the standard agonist) (human mu opioid receptor [1]): 0.25 | Ki (human mu opioid receptor [2]): 34.9 nM | Ki [3]: > 1000 nM | Ki [4]: > 1000 nM

Source: paper PMC9998502, “Functional selectivity of EM-2 analogs at the mu-opioid receptor” (Frontiers in Pharmacology, 2023)
